In US20030049729:

T1: human fibrinogen fragments, P02671
T1 chain 1: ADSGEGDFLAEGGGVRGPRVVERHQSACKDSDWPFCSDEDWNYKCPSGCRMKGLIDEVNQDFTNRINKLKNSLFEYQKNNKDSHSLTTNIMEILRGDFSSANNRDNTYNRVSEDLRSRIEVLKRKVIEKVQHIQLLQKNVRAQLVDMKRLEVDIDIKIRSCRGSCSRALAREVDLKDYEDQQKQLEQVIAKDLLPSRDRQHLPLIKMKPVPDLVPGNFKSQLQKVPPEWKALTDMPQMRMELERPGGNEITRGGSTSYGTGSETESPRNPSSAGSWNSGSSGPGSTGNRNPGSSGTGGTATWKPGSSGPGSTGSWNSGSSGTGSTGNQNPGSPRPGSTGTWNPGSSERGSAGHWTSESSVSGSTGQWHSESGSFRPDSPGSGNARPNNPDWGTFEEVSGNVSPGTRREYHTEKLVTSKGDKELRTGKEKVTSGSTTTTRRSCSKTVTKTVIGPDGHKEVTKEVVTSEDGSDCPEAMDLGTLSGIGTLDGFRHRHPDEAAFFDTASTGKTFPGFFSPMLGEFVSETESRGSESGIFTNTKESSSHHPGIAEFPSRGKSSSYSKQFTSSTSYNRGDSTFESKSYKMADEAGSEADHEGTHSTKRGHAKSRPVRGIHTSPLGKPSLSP
T1 chain 2: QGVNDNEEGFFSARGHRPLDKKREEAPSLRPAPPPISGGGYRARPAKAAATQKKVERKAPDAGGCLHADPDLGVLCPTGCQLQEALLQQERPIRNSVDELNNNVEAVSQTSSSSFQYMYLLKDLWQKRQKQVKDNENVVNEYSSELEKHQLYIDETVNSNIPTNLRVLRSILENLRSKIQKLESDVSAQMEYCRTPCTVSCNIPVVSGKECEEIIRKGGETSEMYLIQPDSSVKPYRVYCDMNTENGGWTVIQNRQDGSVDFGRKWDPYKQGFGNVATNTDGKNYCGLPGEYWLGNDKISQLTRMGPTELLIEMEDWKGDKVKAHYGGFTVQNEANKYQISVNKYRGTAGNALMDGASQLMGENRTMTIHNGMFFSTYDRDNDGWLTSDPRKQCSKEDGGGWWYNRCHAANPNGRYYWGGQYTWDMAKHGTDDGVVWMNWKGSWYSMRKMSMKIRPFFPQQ
T1 chain 3: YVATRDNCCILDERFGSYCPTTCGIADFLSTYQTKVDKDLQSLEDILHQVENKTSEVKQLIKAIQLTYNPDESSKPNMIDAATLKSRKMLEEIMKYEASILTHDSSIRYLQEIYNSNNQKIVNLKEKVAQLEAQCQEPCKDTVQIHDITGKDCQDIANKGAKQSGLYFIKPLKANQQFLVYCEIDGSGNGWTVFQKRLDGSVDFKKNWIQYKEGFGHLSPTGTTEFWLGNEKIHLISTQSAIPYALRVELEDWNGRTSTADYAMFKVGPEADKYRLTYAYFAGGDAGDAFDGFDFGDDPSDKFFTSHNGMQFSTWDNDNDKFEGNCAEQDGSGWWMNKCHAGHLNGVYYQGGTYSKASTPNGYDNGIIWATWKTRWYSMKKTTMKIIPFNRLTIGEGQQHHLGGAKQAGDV


Key:
[1] = target: T1, human fibrinogen fragments, P02671
[2] = target: plasminogen
Chain of plasminogen (P00747 20-810): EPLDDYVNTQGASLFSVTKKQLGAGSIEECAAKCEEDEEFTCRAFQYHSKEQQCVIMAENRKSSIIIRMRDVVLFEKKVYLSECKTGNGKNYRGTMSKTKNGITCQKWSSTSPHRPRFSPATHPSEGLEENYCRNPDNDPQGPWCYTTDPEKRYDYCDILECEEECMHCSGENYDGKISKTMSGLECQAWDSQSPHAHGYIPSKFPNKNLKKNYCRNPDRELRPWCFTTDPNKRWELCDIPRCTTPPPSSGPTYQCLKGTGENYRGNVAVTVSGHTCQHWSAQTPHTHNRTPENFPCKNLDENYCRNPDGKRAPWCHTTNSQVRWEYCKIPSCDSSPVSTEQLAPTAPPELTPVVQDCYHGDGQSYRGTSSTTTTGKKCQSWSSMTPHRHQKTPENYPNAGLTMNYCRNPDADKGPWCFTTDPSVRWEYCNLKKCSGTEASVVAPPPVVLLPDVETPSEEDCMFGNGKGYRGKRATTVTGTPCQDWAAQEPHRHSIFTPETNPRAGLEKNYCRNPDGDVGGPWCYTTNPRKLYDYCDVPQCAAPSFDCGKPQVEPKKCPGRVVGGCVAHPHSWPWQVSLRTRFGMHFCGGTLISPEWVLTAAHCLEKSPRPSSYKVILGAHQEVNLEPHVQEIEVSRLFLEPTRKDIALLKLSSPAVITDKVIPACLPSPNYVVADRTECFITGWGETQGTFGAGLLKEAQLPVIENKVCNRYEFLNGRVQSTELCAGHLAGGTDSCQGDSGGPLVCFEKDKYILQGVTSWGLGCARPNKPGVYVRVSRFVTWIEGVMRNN

Protein | enzymatic activity without fibrinogen [1] | copolymerized plasminogen polyacrylamide gel electrophoresis [2] | fibrinogen-dependent enzymatic activity (culture supernatant r-K2S) [2] | fibrinogen-dependent enzymatic activity (periplasmic r-K2S) [2]
recombinant-K2S (r-K2S), kringle 2 plus serine protease portion of tPA, expressed in non-gpIII fusion form in XM[K2S] (protein) SEGNSDCYFGNGSAYRGTHSLTESGASCLPWNSMILIGKVYTAQNPSAQALGLGKHNYCRNPDGDAKPWCHVLKNRRLTWEYCDVPSCSTCGLRQYSQPQFRIKGGLFADIASHPWQAAIFAKHRRSPGERFLCGGILISSCWILSAAHCFQERFPPHHLTVILGRTYRVVPGEEEQKFEVEKYIVHKEFDDDTYDNDIALLQLKSDSSRCAQESSVVRTVCLPPADLQLPDWTECELSGYGKHEALSPFYSERLKEAHVRLYPSSRCTSQHLLNRTVTDNMLCAGDTRSGGPQANLHDACQGDSGGPLVCLNDGRMTLVGIISWGLGCGQKDVPGVYTKVTNYLDWIRDNMRP | Without fibrinogen no enzymatic activity of the r-K2S purified from culture supernatant was observed | Transparent areas of serine protease digested plasminogen were observed only in the ammonium sulfate precipitated culture supernatants of XM[K2S] at 34 and 37 kDa postions | 7 IU/ml | notably low enzymatic activity, which was below the sensitivity of the test (0.25 IU/ml)
standard melanoma tPA 86/670 (protein) SYQVICRDEKTQMIYQQHQSWLRPVLRSNRVEYCWCNSGRAQCHSVPVKSCSEPRCFNGGTCQQALYFSDFVCQCPEGFAGKCCEIDTRATCYEDQGISYRGTWSTAESGAECTNWNSSALAQKPYSGRRPDAIRLGLGNHNYCRNPDRDSKPWCYVFKAGKYSSEFCSTPACSEGNSDCYFGNGSAYRGTHSLTESGASCLPWNSMILIGKVYTAQNPSAQALGLGKHNYCRNPDGDAKPWCHVLKNRRLTWEYCDVPSCSTCGLRQYSQPQFRIKGGLFADIASHPWQAAIFAKHRRSPGERFLCGGILISSCWILSAAHCFQERFPPHHLTVILGRTYRVVPGEEEQKFEVEKYIVHKEFDDDTYDNDIALLQLKSDSSRCAQESSVVRTVCLPPADLQLPDWTECELSGYGKHEALSPFYSERLKEAHVRLYPSSRCTSQHLLNRTVTDNMLCAGDTRSGGPQANLHDACQGDSGGPLVCLNDGRMTLVGIISWGLGCGQKDVPGVYTKVTNYLDWIRDNMRP | standard melanoma tPA showed some activity | The positive control lane of standard melanoma tPA also demonstrated enzymatic activity at 66 and 72 kDa positions | – | –
